Data: the DeepSol protein solubility set

Test: soluble on expression in E. coli; label from the status in PepcDB or PDB records

Row | Sequence | soluble on expression in E. coli
1 | MGSDKIHHHHHHMKILYISNFNLPDFQNDMIFHGLRSVFGNDCIDSNEAWYMYEDFRNYWNVRVPENGMSYGRGFTLYGKLPKIDIDRKNIYEKIKDKYFDKIVYGSITRNNMFLDEVISIYEKNNIIMIDGEDNTEINQNFFGKGIYFKRELIYEPTSYLKPIGFCIPNETIVNNISIKEKDYGHVIPGDPETYIYTDEVSYFEDYRKSYFGVTMKKGGWDCLRHYEILMNGCIPYFLNLEQCPKYTMTHFPKNIILDVINKINTESNILNFYNEYVDILLEYTRNKLTTRKVIESIL | not soluble
2 | MGSDKIHHHHHHMKIQSLFFTLYGDYVKDSGGTISSKSLIVIFKEFGFSEGAIRAGLHRMKKAGLIVGIKGENRKVSYKLSEKGMLRLLEGTRRVYEKVRRRWDNKWRIVVYNIPENNRELRDKLRRELKWLGFGMLAQSTWISPNPIEDTLKNFINDHYGSSNGIQVDIFVANYLGEPKGLVEKCWNLSEVEQAYRAFLEKWTGVLEKVSSLKSNEAFVTRILLVHEYRKFLNIDPDLPEDLLPPNWIGYTAYDLFMKLREELTPKANEFFYKVYEP | not soluble
3 | MGSDKIHHHHHHMKISLGPIHYYWSKENIEQFYRRAEHWPVDIVYLGETVCAKRRALRSADWLDIAARLTDAGKEVVLSTLALLEANSDLLQLERICANTHYLVEANDMSAVHLLAGRGPFVIGPHINCYNAETLSLLADLGGRRWIPPVELPATTIAMLQNTRPETMETEAFAYGYLPLSFSARCFTARADNVGKDACELRCIKDPEGRALFTQEQERLFTINGIQLQSGIPCNLLNETVAMSEMGMDIVRISPQLTATESVIRAFHAVLNGEISPPVEYGSPACNGYWYGKPGMQFSPVQGH | not soluble
4 | MGSDKIHHHHHHMKISLGPLLYCWEKQQVIDFYQQVANSQIPLVYLGEAVCSRRRELKWGDYLELAKMLKSAGKDVVLSTLALIEAPSEYTELKRQVDNGEFMIEANDMAAVYLAKEHKQPFVCGASINNYNRASLDILQRLGMQRFVMPVELSKTWLSQVVDKKPSFEVEVLGHGYLPLAHSARCFTARHSQLAKDSCETVCRQYSKGLLAQTQEAQPLLRLNGIQTQSASCVDLRSEISAMVKIGVDVFRVSPSSLACIAKADALVEALNSGAMDAQYPLSDEHCNGYWFGEAGLKSLS | not soluble
5 | MGSDKIHHHHHHMKITQIRNATLQLEFGGKTFLIDPMLAPKATYPGFPGTANDHLRNPLVELPLPMATILDVDAVIVTHTHLDHWDDAAIKAIPKTMPIFSQNAQDADLIRRAGFISVRVLGEQMEYDGITLIKTAGQHGSDETYANPQLAERLGEVCGIVFQHANEKSFYLAGDTVWNQHVIDVLTDYSPDVVALNIGNAFIPSFGSIIMGKEDVRRVHQLVPNAAIVATHMEAVNHCLLSRAELRDYLHEEKLQSIAHVPNDGESVQF | not soluble
6 | MGSDKIHHHHHHMKIVKISPRGYCYGVVDAMVIARNAALDTSLPRPIYILGMIVHNKHVTDAFEEDGIITLDGPSRLDILDKIDSGTVIFTAHGVSPEVKQRAKEKGLTTIDATCPDVTKTHDLIEAKKAEGYHVIYIGKKNHPEPEGAVGIAPDIVHLIERADDLKTLEIPTDKILVTNQTTMSQWDVQHLMEDIQKKFPTAEFHKEICLATQVRQEAVAKQADVADLTIVVGDPKSNNSNRLAQVSQEIAGTKAYRVADVSEIKLEWLQGVENVAVTAGASTPTPITKEVIAFLEQYDPMNPATWERVRKVPLQKILPRVKVKKEQ | not soluble
7 | MGSDKIHHHHHHMKKAHVIVVGNEKGGTGKSTISMHLIVSLLDKGLSVGSIDIDARQATLSRYIGNRAARQDRAELNLPIPEHIPIPPSGDAQADCARLDEVFKDFAARHDVVVIDTPGSDHPMSRLGHSFADTLVTPLNDSLVDLDVLALVEPGTMKIRRPSHYAEMVWETKKTRAMRGEKAVVDWIVLRNRLSNLDARNKRDMEKLLAELSKRVGFRVIPGLGERVIYRSMFLEGLTLVDLKKKPLGFDFNMSHVAARQELRTLVDAIGLGLPATA | not soluble
8 | MGSDKIHHHHHHMKKIPCVMMRGGTSRGAFLLAEHLPEDQTQRDKILMAIMGSGNDLEIDGIGGGNPLTSKVAIISRSSDPRADVDYLFAQVIVHEQRVDTTPNCGNMLSGVGAFAIENGLIAATSPVTRVRIRNVNTGTFIEADVQTPNGVVEYEGSARIDGVPGTAAPVALTFLNAAGTKTGKVFPTDNQIDYFDDVPVTCIDMAMPVVIIPAEYLGKTGYELPAELDADKALLARIESIRLQAGKAMGLGDVSNMVIPKPVLISPAQKGGAINVRYFMPHSCHRALAITGAIAISSSCALEGTVTRQIVPSVGYGNINIEHPSGALDVHLSNEGQDATTLRASVIRTTRKIFSGEVYLP | not soluble
9 | MGSDKIHHHHHHMKKKLALVVVHEIYGVNDHMHHVTDHFTSSHIDVFCPNLLQSQPAFHYSDEEKAYHFFMNHIGFEDGKKQIETFITHLSSRYTHIGLIGFSVGATISWLCSNNPKIDFIIGCYGSRIRDYIHMKPTCATLLIFPEKEASFSVPSFIQSLQQQKNPLLEIYQLHGEHGFLNPYTEKYNGHSTNQAYNLIDSFLVKNTLIKEM | not soluble
10 | MGSDKIHHHHHHMKKLRKIIEINEELCNGCGQCISACAESALALVNGKARVVSDNLCDGLGTCIGECPTGALKIVEREAEEFDAQAVEIARSCPSTRMVMTFTAGTPSSEARPSALSHWPVKIRLIPENAPFLKGADLLVVADCVPVAFSDLHGRFLPGKVVMAGCPKFDEAQPYIEKFAGIFHNAGIRRVTVLTMEVPCCSGLPILVRKGMELAGVRVPMEVAVISTRGEILDKTA | not soluble
11 | MGSDKIHHHHHHMKKLSHQFDKPKRSVASPEALEALRNNNAVRWYVLSLPDCHRGGVRGLQREQDRRIQAGEPSFGFFAPSYQEVRRIDGKFVNTQRPLLFNYVFVRASERDVFQLMQRFPVLSFLPRVRERKREYFPYLSDAAMENLQWVARSYSNTLPVYIPQPDGLRKGDRIRITEGRFKGVEATVVIQPGAGRKDVMVCVENWMWVPLLRVMPGEYEVIALNDEDKHVYTRLDNDCMLNGLHSALQRYHSAEGVNEEDRSLAARALKEYGNLRMDTDVMRCKLYAILLPAYTILGMEEEAAKLVGVMQTMLPLVKAEQSRALAVVTLYGCTDSSIYYHLAHEAVDPWKKEEKPKKSKQQLINRLADYDRWLRH | not soluble
12 | MGSDKIHHHHHHMKKLVENLLSWCKKSMKMRRCVGKSTAPVTGQSVGQTGNAEGVLPSTATETVDEIVLPAAVETAGMVETIDEKAAFGKSGRKKPENMLDALQRFLTIRYDFRYNLLTEQTEYRGKEMPDEEYAMVAQRDLNTFCLEARTGGINCWDKDVSRLLHSRKVENYHPFLHYMSHLPQWDGVDRVTPLAVRISRKPMWVKGFHRWMLGVAAQWLGQAQDCANAVAPMLVSREQGKRKSSFCKILMPKELTPYYIDKFDLTSESGCEQKLSLFGLINMDEFDKYRAGQMPALKNLMQTTTLTFRRAHRPAFSHLPRIASFIGTSNMTDLLTDPTGSRRFLCAEVDGKIDCTPPDHAQLFAQLKAELAGGERYWFSEEEEKEIQHSNRNFYKMPAEQELFLRCFRMPQEGELSKPYTTTDLFNYLQKHYPAAMRGVTPNRLGRMMVALGIQRVHTEYGNVYRLVKLKDSSAA | not soluble
13 | MGSDKIHHHHHHMKKLVVRADDIGYSEGVTLGIISSYKNGIVTSAGIMVNMPFSRQAIEMVKNDDVCFGLHVNLVIGEPCCKEHIKIKNLLDEGGKFVSSKIRRTQLLTGKEVFNYEEVYEEVCAQIETYKLYMSKLPEYIDIHGIEEDVSISAMCDAAKEYGIPSCPYYLDSCISMPSKYPQNDFYKLNKSFVKLFEEKYINLDKDITLMVTHPGFIDYSLIKSSSLIQERVYEHAMLCDKEVKMWLKRNNIELVDFKDIFKSNNYI | not soluble
14 | MGSDKIHHHHHHMKKNQKISVEQLEVGTFIRLPISWKDHPFLFSSFKIKDAAQIELIKGLGLKDVFFDPEKSDVEPVTSENASTQKPDEQALNALKEQMISQKSAKIDEQQKLKRDLKKTEQQFNRSVSMMRSMVSKISSRPLNAVSEAKDLISNMTTMLLNSDNLALHLMGDAKNDEHIYHHSLNVAMLCMLMAKELGWSREEVETIGIGGLFHDIGKLKVPSNILNKRVPLTTPEENFIKQHPLMSINFLKLADSFPDEAKPLIANHHEYLDGSGYPQGLKADKLDKLSQLIAVVNEYDNLCNGTNQAKGKPPSIALGLLYKNYKNKLNVEYISKLIKMLGIYPPGSIIELSSGQFAMVMSVNLQKLLCPNIVVYDQLVPKDLAPIISLQDEGLSIVRSLPAAALPEKIHKYLNPREQISLGIGQN | not soluble
15 | MGSDKIHHHHHHMKKSERLNQELFFLRTHPQFNLNQLMKTFGISKSTALRDIEALENLGVPLYVENGRYGGYRVLNKPLLPPIYFNENEVLAIFFSLQLLKLVAESPFGHSYQQIKQKLLHSLDEPTQFKISQMSKVVYYEGIEQVEAPGNLEQLFHCILAQQVIQFNYTRYEATTKKILPTRLTILEGYWYCSGYDVTKKAWRTYRCDFMEAIQQLNQTLDFTTEELKESYRHQQTTARTIPFKAIITEKGKEFFYKHRFDNIQLEETPTQCFLVGQIHPTETQFLANYFMGFGEEVTILDPVQVKQAYVESIMRIQKKYQE | not soluble
16 | MGSDKIHHHHHHMKLAYFVIPHIGGTYSVFKHLRKGLAAYDIDVRWLGVCKETYGLPLDLQGETAFGQLLRMPVNLSERDCAARMAAAIENGGFDGVIVNVLGDQLQTNIARYLPEGILRILVVHNISPGTYAAARSVRDYAHVTIGVSERCRADLVARNGFPKDRTYAIPNAVDSDAFRSQAVRRVNRGPELKVLFVGRIEDASKGVMWLREILDGSPEAVRLTIVGDGPDMGKLRRRLASHDDRVSYAGSVQLSDIPVIMASHDVLIMPSRFEGLGMTMIEAMAGGCVPVVSHIRGVTDTIVEPGRNGFLFPIGNYTAAANAIGRLHADRDLLERMSIAGKEMVLNRFSIERMAARYNEVIAMTLNDRPGLSTVLRMEDWSIPAGLRPGLRTYLPLPLKNWLRVVRERL | not soluble
17 | MGSDKIHHHHHHMKLILSVESVRFPLTGIGRYTYELASRLQHAEQISDLRLFAGSRFLPELLKPSDQSDAVHGLKRFVQKNALAVEAYRRLMPLLRKRALRGHEDFIYHSTNFYLPPFAGPRVATFHDLSPFTWAHCHTPQIARYLQKELKLTLERADALITVSHHTRKELADYFGWPLERIHAVPLASSPQFHPRTPQALRETLARHGLELGGYSLFVGTIEPRKNIETLLNAYGRLPLALRQRWPLILSGYHGWRSEAIHSRIAQAQQEGWARYLGFVASEDLPLLFAGARLFTFPSHYEGFGLPVLEAMSSGVPVVCSNSSSLPEVAGSAALMCAPDDVEGLTGLLHQGLEDEAWRSAAVQRGLLHAGGFSWERCAQGTVEVYKSVKER | not soluble
18 | MGSDKIHHHHHHMKLLEVKGLKKYFPLTKGFFKKVVGYVRAVDDVSFDIKQGETLALVGESGCGKTTTAKSILRAIDPTDGDVILHLDGKDVNIAKLSRDELKPYRRYMQMIFQNPYTSLNPRMKVKEIVGEPLLVNGIAKGKELEDRVAELLKAVGLRPEYMIRYPHAFSGGQRQRIVIARAIALRPKLVVCDEPTSALDVSIRAQILNLLMDLQEEFALTYLFITHDLSVVEHISDRVAVMYLGKIVELSSTEEIFENPKHPYTETLLRSVPKPDPDLREELVPIEGEVPNPANPPSGCYFHPRCPYAKSICKEEYPEFRNLGTEDNPHYVACHFAESLKLRGVKITL | not soluble
